The assay has as its target WD-40 repeat-containing protein 5 (WDR5), full-length (human, UniProt P61964 1-334). Briefly: ITC. In general terms: ITC needs no label: the signal is the heat of the interaction.

Take ARTKQTARKSTG [Histone H3 1–12aa unmodified peptide]: the Kd (commonly the free concentration of one partner at which half of the binding sites on the other are occupied at equilibrium, for simple one-to-one binding) came out at 10.6 ± 0.8 µM.

These data come from PMC7529705 (Biochemistry, 2020).
